For one assay, the target named is T1, human IL7 (human, UniProt P13232 26-177).
T1 sequence (looked up): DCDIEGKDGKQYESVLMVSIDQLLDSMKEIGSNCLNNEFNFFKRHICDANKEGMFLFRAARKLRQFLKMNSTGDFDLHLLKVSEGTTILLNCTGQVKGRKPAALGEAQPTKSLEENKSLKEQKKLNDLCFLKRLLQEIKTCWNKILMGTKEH
The experiment in a line: ELISA: plate-coated ligand, Xceptor detected with HRP anti-human IgG-Fc. The method, then:
(§1) Mouse and human ligands (R&D Systems, Minnesota, MN) were added to wells of a 96-well plate at a concentration of 1 μg/ml in PBS (100 μl/well). Plates were incubated at 4° C. overnight. After washing five times with PBS-T, 250 μl Blocking Buffer (PBS-T with 3% BSA) was added to each well, and the plate covered and incubated at room temperature (RT) for 2 hours. Serial three fold dilutions of xceptors were made in Working Buffer (PBS-T with 1% BSA) starting at 300 ng/ml. As a negative control, an irrelevant xceptor was used. The plate was incubated at RT for 1 hour. After washing five times with PBS-T, 100 μl per well of HRP-conjugated anti-human IgG-Fc (1:5000 in Working buffer) was added, the plate covered, and incubated at RT for 1 hour. After washing five times with PBS-T, 100 µl of Quant-Blu substrate (Pierce, Rockford, Ill.) was added to each well. The plate was incubated at RT for 10-30 minutes, and fluorescence measured at 325/420 nm.
(In general: ELISA stands for enzyme-linked immunosorbent assay.)

A further assay deals with T2, TRU(XT6)-1042.
T2 construct: not trimmed; also called Xceptor TNFRSF1B::anti-HIL6
As to the kind of experiment: ELISA: Xceptor captured on anti-human IgG-Fc, sIL-6R added, detected with anti-IL-6R-biotin. On the procedure:
Added to each well of a 96-well plate was 100 μl goat anti-human IgG-Fc (ICN Pharmaceuticals, Costa Mesa, Calif.) from a 2 μg/ml solution in PBS, pH 7.2-7.4. The plates were covered, and incubated overnight at 4° C. After washing four times with PBS-T, 250 μl Blocking buffer (PBS-T with 3% BSA or 10% normal goat serum) was added to each well, the plate was covered, and incubated at room temperature for 2 hours (or at 4° C. overnight). […] After washing the plate five times with PBS-T, added in duplicate wells was 100 μl/well recombinant human sIL-6R(R&D Systems) from a […] solution in Working buffer, the plate was covered, and incubated at room temperature for about 1 to 2 hours. After washing the plate five times with PBS-T, added 100 μl/well anti-human IL-6R-biotin (R&D Systems) from a 100 ng/ml solution in Working buffer, the plate was covered, and incubated at room temperature for about 1 to 2 hours. After washing the plate five times with PBS-T, 100 μl per well horse radish peroxidase-conjugated streptavidin (Zymed, San Francisco, Calif.) diluted 1:4,000 in Working buffer was added, the plate was covered, and incubated at room temperature for 30 minutes. After washing the plate six times with PBS-T, 100 μl per well 3,3,5,5-tetramentylbenzidine (TMB) substrate solution (Pierce, Rockford, Ill.) was added for about 3 to 5 minutes and then the reaction was stopped with 50 μl Stop buffer (1N H₂SO₄) per well. The absorbance of each well was read at 450 nm.

Another assay has as its target T3, human RANKL (human, UniProt O14788 140-317, limits assumed).
T3 sequence (looked up): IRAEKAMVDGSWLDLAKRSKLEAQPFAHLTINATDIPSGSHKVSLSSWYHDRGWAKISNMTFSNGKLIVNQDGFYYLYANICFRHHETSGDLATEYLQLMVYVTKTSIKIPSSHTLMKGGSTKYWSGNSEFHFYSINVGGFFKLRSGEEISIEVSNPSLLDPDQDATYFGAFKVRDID
As to the kind of experiment: ELISA: plate-coated ligand, Xceptor detected with HRP anti-human IgG-Fc. On the procedure: as §1

Another assay addresses T4, mouse RANKL (mouse, UniProt O35235 158-316, limits assumed).
T4 construct: also called mRANKL
T4 sequence (looked up): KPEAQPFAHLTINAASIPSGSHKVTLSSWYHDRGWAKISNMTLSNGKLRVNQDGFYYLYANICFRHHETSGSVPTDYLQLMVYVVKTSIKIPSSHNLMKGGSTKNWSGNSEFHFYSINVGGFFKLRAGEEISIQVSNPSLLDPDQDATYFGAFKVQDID
The assay is described as above. On the procedure:
as §1

B1: Xceptor comprising a TNFRSF1B ectodomain and an IL7R ectodomain (Fc fusion)
chain: LPAQVAFTPYAPEPGSTCRLREYYDQTAQMCCSKCSPGQHAKVFCTKTSDTVCDSCEDSTYTQLWNWVPECLSCGSRCSSDQVETQACTREQNRICTCRPGWYCALSKQEGCRLCAPLRKCRPGFGVARPGTETSDVVCKPCAPGTFSNTTSSTDICRPHQICNVVAIPGNASMDAVCTSTSPTRSMAPGAVHLPQPVSTRSQHTQPTPEPSTAPSTSFLLPMGPSPPAEGSTGDTGEPKSSDKTHTCPPCPAPEAAGAPSVFLFPPKPKDTLMISRTPEVTCVVVDVSHEDPEVKFNWYVDGVEVHNAKTKPREEQYNSTYRVVSVLTVLHQDWLNGKAYACAVSNKALPAPIEKTISKAKGQPREPQVYTLPPSRDELTKNQVSLTCLVKGFYPSDIAVEWESNGQPENNYKTTPPVLDSDGSFFLYSKLTVDKSRWQQGNVFSCSVMHEALHNHYTQKSLSLSPGQRHNNSSLNTGTQMAGHSPNSESGYAQNGDLEDAELDDYSFSCYSQLEVNGSQHSLTCAFEDPDVNITNLEFEICGALVEVKCLNFRKLQEIYFIETKKFLLIGKSNICVKVGEKSLTCKKIDLTTIVKPEAPFDLSVVYREGANDFVVTFNTSHLQKKYVKVLMHDVAYRQEKDENKWTHVNLSSTKLTLLQRKLQPAAMYEIKVRSIPDHYFKGFWSEWSPSYYFRTPEINNSSGEMDP
notes: also called TNFR × IL7R
Consider B1, for which, in the assay with human IL7, the binding result is given as “binds”.

B2: recombinant human sIL-6R (receptor)
chain: LAPRRCPAQEVARGVLTSLPGDSVTLTCPGVEPEDNATVHWVLRKPAAGSHPSRWAGMGRRLLLRSVQLHDSGNYSCYRAGRPAGTVHLLVDVPPEEPQLSCFRKSPLSNVVCEWGPRSTPSLTTKAVLLVRKFQNSPAEDFQEPCQYSQESQKFSCQLAVPEGDSSFYIVSMCVASSVGSKFSKTQTFQGCGILQPDPPANITVTAVARNPRWLSVTWQDPHSWNSSFYRLRFELRYRAERSKTFTTWMVKDLQHHCVIHDAWSGLRHVVQLRAQEEFGQGEWSEWSPEAMGTPWTESRSPPAENEVSTPMQALTTNKDDDNILFRDSANATSLPVQD
notes: Bought; also called human soluble IL6R
On to B2, for which the binding result with TRU(XT6)-1042 is reported as “no binding”.

B3: Xceptor comprising a TNFRSF1B ectodomain and an OPG ectodomain (Fc fusion)
chain: LPAQVAFTPYAPEPGSTCRLREYYDQTAQMCCSKCSPGQHAKVFCTKTSDTVCDSCEDSTYTQLWNWVPECLSCGSRCSSDQVETQACTREQNRICTCRPGWYCALSKQEGCRLCAPLRKCRPGFGVARPGTETSDVVCKPCAPGTFSNTTSSTDICRPHQICNVVAIPGNASMDAVCTSTSPTRSMAPGAVHLPQPVSTRSQHTQPTPEPSTAPSTSFLLPMGPSPPAEGSTGDTGEPKSSDKTHTCPPCPAPEAAGAPSVFLFPPKPKDTLMISRTPEVTCVVVDVSHEDPEVKFNWYVDGVEVHNAKTKPREEQYNSTYRVVSVLTVLHQDWLNGKAYACAVSNKALPAPIEKTISKAKGQPREPQVYTLPPSRDELTKNQVSLTCLVKGFYPSDIAVEWESNGQPENNYKTTPPVLDSDGSFFLYSKLTVDKSRWQQGNVFSCSVMHEALHNHYTQKSLSLSPGQRHNNSSLNTGTQMAGHSPNSETFPPKYLHYDEETSHQLLCDKCPPGTYLKQHCTAKWKTVCAPCPDHYYTDSWHTSDECLYCSPVCKELQYVKQECNRTHNRVCECKEGRYLEIEFCLKHRSCPPGFGVVQAGTPERNTVCKRCPDGFFSNETSSKAPCRKHTNCSVFGLLLTQKGNATHDNICSGNSESTQKCGIDVTLCEEAFFRFAVPTKFTPNWLSVLVDNLPGTKVNAESVERIKRQHSSQEQTFQLLKLWKHQNKDQDIVKKIIQDIDLCENSVQRHIGHANLTFEQLRSLMESLPGKKVGAEDIEKTIKACKPSDQILKLLSLWRIKNGDQDTLKGLMHALKHSKTYHFPKTVTQSLKKTIRFLHSFTMYKLYQKLFLEMIGNQVQSVKISCL
notes: also called TNFR × OPG
As to B3, the binding result in the assay with human RANKL and with mouse RANKL was “binds” in each case.

These data come from US20110152173A1 (EMERGENT PRODUCT DEVELOPMENT SEATTLE, published 2011).
